This is an account of results in FireProtDB (doi:10.1021/bi982427c).

For the data set the following is noted: Bos taurus; pH 5.3; 5 °C; GdnHCl; Fluorescence; Sodium acetate 0.02 M; reversible: yes; whole UniProt chain shown.

B1: Acyl-CoA-binding protein wild type, P07107 (protein)
chain: MSQAEFDKAAEEVKHLKTKPADEEMLFIYSHYKQATVGDINTERPGMLDFKGKAKWDAWNELKGTSKEDAMKAYIDKVEELKKKYGI
Consider B1, for which the unfolding free energy was 7.89 kcal/mol.
